Assay results from the NTF2 design screens of Basanta et al. (2020).

Assay: protease stability score; higher = more stable; yeast display proteolysis, trypsin and chymotrypsin;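 note: relative to predicted unfolded state with 0 unfolded-like and 1 meaning tenfold more protease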

Sequence | protease stability score
DDEEKYFRMAVHHIIHLLHTGDETDSEHQADPDVRITVGDKRFHGREDFRDWVRELTDRYKNMTFRLKSVDVQGDFIILHGLLHFNGKNVEFDVFSWKFNGKWFMHHIIVR | 1.72
DDLEESLKHLLELIIQWIRTGDFHMLSQYADPDVKIHYNGREYIGREFFLQLMREMGANHFSVERIDFQGDKLHVEISFRVGDKETHTRVESWKFNGVWLLKHIEMR | 0.463
DEDEDFIRHQIQLYIELFETGDWRSLKRLADPNARHHINGRDLHGMDLFRRHIEHMGIKIKHIKLRDMRVIGDKIELKVENNVEIDGRERSLEEEIIARKIDGRWILESSTIR | 0.39
DEYEREYKKFIDDMLHAWLTGDEDTLQELVDPNARLHFNGQELHGRDIWLRNYREHGMKVKSYHIEHREIQGEKIIIRGRLNGHVNGRNSNMDIILIIEKVDGRWVMQDIRIS | 1.98
TEEQHEARHLFQLWVYSVITGNEHILHNLVDPHYLLDVGDYHVHGREDTLKVLLEARVEDFRVRDVRVYDGRLESDIEFTGHFNGRKINNKVEMTQEKIDGRWYLKRTKVT | 1.77
DVEEEYRHVMEEVHKHAMKTGDEQDILHLMDPNARFEVDGKIYIGREWLRRFVDILGVSRIHLHDLKIKDYRIIGNKIEVDGNIDGIVGNKRHEIDSHVISEKIDGRWIIKREKHR | 0.324
SEDERLMKKLWEDLIRDLITGDEDSMKRLADPNVLVEFENHKEHGRDLFSHLMFHARIKRIHTHEVEIQGDKAVYNVRIDGEINGQRHDYEREIYSFKVNGQWFIERVIIK | 1.4
SEMEEVYKRWVDLFRHAMDTGNEDLHLHLLDPHVRININGVELIGRDDDRDHLERLRKELGVSRFEMRVRIRDVDIQGDKIRSETEFTVIFNGREIIIKTRLILEKVNGRWILRSLEYN | 1.39
DEDRKYVEELMRKIWEAMHTGDEKFFNNLADPHYRLRIGDKNFIGRDEFHKFLRHIRMTVEDFQERDSDEIDGVIIIIGETTYIFIVNGQEKHHVVEVEIIIIKIDGRWLLHSVNIH | 1.27
VEDLQLAEHVTRLLLHLVHTGDFDVMKELLDPNVRIHVDGQDYHGRDVWKHILDRFDYISVHHSEVKENDVQGNKVNIRVHTDVIFEYGDKRLRQRYDVVVIAQKINGRWIIELFSVR | 1.22
SEDDEHMKEIWRILQHSLETGDFHILSRMADPNAKFDIGDKEIVGMHLWIEELLRYKNRQIRVHYHEMRVYDGKIDSRERYDVKYGDKELTTELRVHARKIDGRWVLEDVRVH | 0.668
TEDIEHMIKVVEIFLRAVTTGNEDEMKYLMDPRMRLVVGDKIHHGWEEIWKFLEHIREERDKVHTKDTKVYNGRMDINSRVSSTIHFNGVRIEIDHEVHFHIKKINGRWFIEEIRIQ | 1.3
SEDERWLELLSRLLIEATRTGDWRELRHMLDPNVQLSFDGVQLHGRETIIEFLRHEERRLGVKHIDLHDRRIEYFDGRVILESELIIHYGDKEHRSEVRVYANKVNGRWFIEHIEIG | 2.13
DEEERHTHEWFKELLHNLQTGDEDRFRQMADPNVQILVDGVEYIGREHAAHWMIIHIRHLRIEHEHDEEIRVFDGRIDVRHIRVGSYGDKRTDTRVHIDVNIIDGRIKFLRIHYS | 0.869
SEEDEIAEKILRLYLELFKTGDWRRFEELLDPNVRLEFNGRFYHGREEISRIMKEFHNKFKNVRIELTSFEVQGEKNIMRSSENINGVERETEIYLDIWNGRIQSLIIRVR | 2.25
SEETKNLEHWAKRFEHALETGDEEVLTKLFDPNVRLHFNGVNIHGWELYRKYHQRVDHVHFRIRSVHVYDGRVDMHTEVENRQGDKSHRMDTRLFAIKVNGVWLIESFEVH | 0.486
SDEIEEVKTFVRLFTKDLETGNEEDLKRLADPNTRLDVNGREIHGWKSMEHRYRELMEKYKNLRIEVKIDDIRVQGDKIHIHTTIKLDYDGVDIELSSWLVIHKINGRWFVRSIEME | 0.605
TEEEKSLKEVLERYIKAIRTGDWEILRHLADPRTRMDINGRDIHGMEEITNELVEQIRRFDHIDFKFHHIEVYGDKADVHGTLVIKINGVEIRHSTKEFWYKVNGRWILHHSEIH | 1.21

Sequence | protease stability score
SHEQEEARFFLDVLIEWFLTGDEEHMMKNADPNVRIEVGDKHLHGRELTYEWLKELRFKHHHVHRVTSQGDKVYYDVKVDGHINGVDRHSLEIIITLKFDGRWILKSIHVR | 1.95
DHEERIISEQLKIELESTATGDESTLEELVDPTTKININGKHLHGRESILKLLVEYARRADHIEIRPEHVEVYGNKLIIHGEIRIEVGDKRHSTKVLLILRKVNGRWRLTEEKWD | 1.65
DEIEHMIHEIFERWIKAWLTGDWRTIEKLFDPDVRVEINGVEIIGRELMSKVLIRKYDEMRSRVKLESEHAQGDKAHFNVNIILHIGDKTIERRSRIHIRIYNGRIHEVRVEED | 2.4
SEEDELTRELVELWLHVFHTGDEEIMYKLADPNARVDVLIDGKRLDLVGREEIRRFLHEWHREAGFKHFDLHDIHFQGEKVHIDGREVYGDKFFRVIIHIHIVNGRIKSTKIEIR | 1.67
HEDEELMKELLKRWLNMLETGDWQNLAHYADPHVRLEFDGREIHGRTEVYRVLVEFHDKIKGMTYILKHSFYVGDKIHIKGSIRIGDKEYDTEIHIIIVDGRLKEVRVEHR | 1.98
DEEEELMHRLVELFLKALITGDEETLSHLADPNVRLHIDGRHIHGWQFSVKEWLRESSEIRMELQIRHIHLIGDKVHVHGQLSIHQGNKHIHREVIYDFVIINGRLKSITVEIT | 1.99
DEEEEEMRKMIDEILKDQATGDEDRLKKLLDPNMRSEINGKDLHGREIVTETLAHLFRFLGIKHVHLNDYRIQGDKVEIYGELEINGQKHTNKIHAEKVNGKWVISEMRLH | 1.43
SEDEEDMTHAIEEIEHFWMTGDWKKMHDLADPHVKTIINGREQHGRRHMIEAIKDSRRRLGVNYIHSVSNKHFDLQGNKVHSDIRIDVDVNGKHIDLELEVDIVKVDGKWQLSHLKIV | 0.931
DERQKELQEFAERLMRVLNTGDWEHTEQLLDPHVRVHFNGRDFHGWEEIVRFWTELRNQFDHFELRVDTVRIQGDKVENDGNAIFRIDGKELRHRITIHVFLINGKIKRVNVEIR | 1.68
TSHEHELRRVAEEIIHAYLTGDWWRWERLFDPHVRVETQVGDKRIERHGREDLIRFLNEMRVHRIEIKTRELYDGRVHIHSRMDYEVDGQRDDVDLHLHFHIVDGKVEEVVITIK | 1.47
SEDEKWIRHAIRLLSEALETGDESMEHHLMDPNVKIRIDGVQYIGWEHWKKFVDRFDHEKIEHVHIRHIEVFNGRVDLDGFVHIILFVDGQEIRETRRTRIIVLKYNGKWLIESIEIE | 2.3
SSEEKRDKDAVELFLKILHTGNFELFRELFDPNTRWEYGDKELIGMELIVTWWFEFVRDRGVEVELHRIDRINGRVVLETTMRIGDKQTSTHVHVIVINGVFHEVRFRFH | 1.29
SDEERLLHELLHRVLHKRVTGDEESIWREIDPRARIDVNGRDVHGRDHFFEFIVKWMMHYGINHLEIKNQREIDGRIDVDFHEEVGDKRFHVRIIFHKINGRWHLTQEVFT | 1.19
SEDERQAEEASEQFLRSVETGDFDELSRLFDPDMKVVFNGKELHGRETYIRLERERRRDLGIKHVKVRVKDFRIINGRLHLHTELEFNVGDKSFTHESRYTWEKVNGRWVIRSVDID | 2.15
SEEKHDSEKLSHLLDHEWLTGDEESFRKLADPHVKSNINGVRLHGWRELHQFLDEHFNHLGAKIEDSDTEHIHTQGDKAFIHSTFVLLVNGKRIELETFFRSRKFDGRWVLTEVHVH | 0.521
SEDDHRAHEWFRIVFHWLLTGDEEHFDRYADPHTKVDINGVEFHGREEVRRWIYEIRLKDNRIRSVRAVGEKNESDGHRNGHIGDKHIVTDVEVRLHVVDGRIKSIHIIIH | 0.981
SEEEESAKIAIKVMLHSLHTGDEHTMSRLMDPNAREIINGRHNHGREVILEFLRRLGFTKVEIKDFRLTHMSVQGEFVFVHGTTNGEFNGVDTNVDLEIVVLKVDGRWTIQSVFYR | 1.67
DSEEEDARRALQEFLEHLATGNWEVLTKMMDPNTRLDVDGRDIHGWDEVKHHLKEMRVTIDHLHIERYIVQGEKVDIRGRVHILKEFDGKVLRHDRHVRIIFEKVDGRWIIHKIEHR | 1.99
